Experimental findings from patent US20200115458A1 (CALIFORNIA INSTITUTE FOR BIOMEDICAL RESEARCH, published 2020) are described below.

Assay [1] has as its target T1, human ASGPR (asialoglycoprotein receptor) (human, UniProt P07306 62-291).
T1 construct: also called human ASPGR; ASGPR antigen (human)
T1 sequence: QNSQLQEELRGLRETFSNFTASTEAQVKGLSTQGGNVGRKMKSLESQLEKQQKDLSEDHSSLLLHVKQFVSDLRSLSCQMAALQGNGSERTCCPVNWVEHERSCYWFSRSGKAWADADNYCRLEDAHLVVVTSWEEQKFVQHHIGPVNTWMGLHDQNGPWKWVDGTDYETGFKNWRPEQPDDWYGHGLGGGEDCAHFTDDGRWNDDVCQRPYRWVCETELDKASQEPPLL
Kind of assay: ELISA, coated ASGPR antigen (FIG. 3). Here is the method:
(§1) The activity of anti-ASGPR within the Ins1-L1-Ab1L IgG (SEQ ID NOS: 79, 29) and Ins1-L1-Ab1H IgG (SEQ ID NOS: 78, 30) fusion proteins for human ASGPR was tested by ELISA assay. Briefly, 100 ng/well ASGPR antigen (human, rat and cyno monkey) was coated on 96-well plate in PBS at 4° C. overnight; the wells were blocked with 2% milk/PBST (0.5% Tween-20 in PBS) at room temperature for 1 hr; antibodies were added in concentrations of 10 nM, 1 nM and 0.1 nM in 2% milk/PBST at room temperature for 2 hr; the wells were washed with PBST 4-5 times; anti-light chain kappa (sigma A7164) in 2% milk/PBST was added and the plate incubated at room temperature for 1 hr; the wells were washed with PBST 4-5 times; and the reaction was developed with QuantaBlu fluorogenic peroxidase substrate (Life technologies, 15169), and quantified using a Spectramax fluorescence plate reader with excitation at 325 nm and emission at 420 nm. […] The figures illustrate that anti-ASGPR antibodies fused to insulin therapeutic peptides retain activity for their antigen ASGPR.
(In general: ELISA stands for enzyme-linked immunosorbent assay.)

Assay [2] deals with T2, rat ASGPR (rat, UniProt P02706 61-284).
T2 construct: also called ASGPR antigen (rat)
T2 sequence: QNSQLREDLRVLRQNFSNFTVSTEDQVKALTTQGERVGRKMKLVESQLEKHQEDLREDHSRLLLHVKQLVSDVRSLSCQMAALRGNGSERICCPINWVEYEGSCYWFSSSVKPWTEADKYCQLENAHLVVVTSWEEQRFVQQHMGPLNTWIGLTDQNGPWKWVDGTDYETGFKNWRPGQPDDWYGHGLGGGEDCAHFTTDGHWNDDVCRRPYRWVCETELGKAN
The assay is described as follows: ELISA, 100 ng/well coated ASGPR antigen, antibodies at 10, 1 and 0.1 nM, anti-kappa detection. On the procedure:
as §1

Assay [3] concerns the target T1, human ASGPR (asialoglycoprotein …). Kind of assay: ELISA (FIG. 16).
The target of assay [4] is T3, cynomolgus monkey ASGPR (cynomolgus monkey, UniProt P07306 62-291 (human entry)).
T3 construct: also called cyno monkey ASGPR; cyno monkey ASPGR
T3 chain: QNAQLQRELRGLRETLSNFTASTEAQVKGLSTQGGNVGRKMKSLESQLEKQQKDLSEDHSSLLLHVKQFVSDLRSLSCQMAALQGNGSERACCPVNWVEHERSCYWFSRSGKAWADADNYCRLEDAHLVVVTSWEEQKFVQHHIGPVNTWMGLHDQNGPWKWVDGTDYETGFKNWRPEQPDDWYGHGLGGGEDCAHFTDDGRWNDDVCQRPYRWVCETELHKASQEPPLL
The assay is described as follows: ELISA (FIG. 16).

Assay [5] addresses T2, rat ASGPR. Kind of assay: ELISA (FIG. 16).
Assay [6] addresses T1, human ASGPR (asialoglycoprotein …). The assay is described as follows: ELISA (FIG. 37). On the procedure: (§2) The activity of anti-ASGPR within Ins1-L3-Ab4 Fab and Ins1-L3-Ab5 Fab fusion proteins for human, rat, and cyno monkey ASGPR was tested by ELISA assay as shown in FIGS. 37-39 as generally described in Example 3. 100 ng/well ASGPR antigen (human, rat, and cyno monkey) was coated on 96-well plate in PBS 4° C. over night, blocked with 2% milk/PBST (0.5% Tween-20 in PBS) at room temperature for 1 hr, and incubated with the fusion proteins at 4 nM, 20 nM, 100 nM, and 500 nM in 2% milk/PBST at room temperature for 2 hr. Wells were then washed with PBST for 4-5 times, incubated with mouse anti-insulin (MA5-12037, ThermoFisher Scientific) in 2% milk/PBST at room temperature for 2 hr, washed with PBST for 4-5 times, incubated with goat anti-mouse IgG-HRP (115-035-008, Jackson ImmunoResearch) for 30 min, and washed with PBST for 4-5 times The plates were developed with QuantaBlu fluorogenic peroxidase substrate (Life technologies, 15169), and quantified using Spectramax fluorescence plate reader with excitation at 325 nm and emission at 420 nm.
(§3) The figures illustrate that anti-ASGPR antibodies fused to insulin therapeutic peptides retain activity for their antigen ASGPR as determined by ELISA assay.

The target in assay [7] is T3, cynomolgus monkey ASGPR. The assay is described as follows: ELISA (FIG. 39). On the procedure:
as §2, §3

In assay [8] the target is T2, rat ASGPR. Kind of assay: ELISA (FIG. 38). Here is the method:
as §2, §3

B1: Ins1-L1-Ab1L IgG (antibody)
light: FVNQHLCGSDLVEALYLVCGERGFFYTDPTGGGPRRGIVEQCCHSICSLYQLENYCNGGGGSETVLTQSPTTMATSPGEKITITCSASSTISSNYLHWYQQKPGFSPKLLIYRTSDLASGVPTRFSGSGSGTSYSLTIGTMEAEDVATYYCQQGSSIPFTFGSGTKLEINRADTAPTVSIFPPSSEQLTSGGASVVCFLNNFYPKDINVKWKIDGSERQNGVLNSWTDQDSKDSTYSMSSTLTLTKDEYERHNSYTCEATHKTSTSPIVKSFNRNEC
heavy: QVQLQQPGAELVKPGASVKLSCKASGYTFTNYWMHWVKQRPGRGLEWIGRIDLNSGGTNYNYNEKFKTKATLTVDKPSSTAYMQLSSLTSEDSAVYYCANYYGSSWFAYWGQGTTLTVSSAKTTAPSVYPLAPVCGDTTGSSVTLGCLVKGYFPEPVTLTWNSGSLSSGVHTFPAVLQSDLYTLSSSVTVTSSTWPSQSITCNVAHPASSTKVDKKIEPRGPTIKPCPPCKCPAPNLLGGPSVFIFPPKIKDVLMISLSPIVTCVVVDVSEDDPDVQISWFVNNVEVHTAQTQTHREDYNSTLRVVSALPIQHQDWMSGKEFKCKVNNKDLPAPIERTISKPKGSVRAPQVYVLPPPEEEMTKKQVTLTCMVTDFMPEDIYVEWTNNGKTELNYKNTEPVLDSDGSYFMYSKLRVEKKNWVERNSYSCSVVHEGLHNHHTTKSFSRTPGK
notes: also called Ins-L1-Ab1L IgG; Ins1-L1-AbL IgG
With B1, the binding result (in assay [1]; with rat ASGPR [2]) was “binds” in each case.

B2: Ins1-L3-Ab4 Fab (Fab)
light: FVNQHLCGSDLVEALYLVCGERGFFYTDPTGGGPRRGIVEQCCHSICSLYQLENYCNGGGEAAAKEAAAKEAAAKAGGEIVLTQSPGTLSLSPGERATLSCSASSTISSNYLHWYQQKPGQAPRLLIYRTSDLASGIPDRFSGSGSGTDFTLTISRLEPEDFAVYYCQQGSSIPFTFGQGTKLEIKRTVAAPSVFIFPPSDEQLKSGTASVVCLLNNFYPREAKVQWKVDNALQSGNSQESVTEQDSKDSTYSLSSTLTLSKADYEKHKVYACEVTHQGLSSPVTKSFNRGEC
heavy: QVQLVQSGAEVKKPGASVKVSCKASGYTFTNYWMHWVRQAPGQGLEWMGRIDLNSGGTNYNYAQKFQGRVTMTRDTSISTAYMELSRLRSDDTAVYYCARYYGSSWFAYWGQGTLVTVSSASTKGPSVFPLAPSSKSTSGGTAALGCLVKDYFPEPVTVSWNSGALTSGVHTFPAVLQSSGLYSLSSVVTVPSSSLGTQTYICNVNHKPSNTKVDKKVEPKSCDKTHT
notes: also called Ins1-L3-Ab4L (Fab); Ins1-L3-Ab4L and Ab4H(Fab)
B2: the binding result (in assay [3]; with cynomolgus monkey ASGPR [4]; with rat ASGPR [5]) was “binds” throughout.

B3: Ins1-L3-Ab4L IgG (antibody)
light: FVNQHLCGSDLVEALYLVCGERGFFYTDPTGGGPRRGIVEQCCHSICSLYQLENYCNGGGEAAAKEAAAKEAAAKAGGEIVLTQSPGTLSLSPGERATLSCSASSTISSNYLHWYQQKPGQAPRLLIYRTSDLASGIPDRFSGSGSGTDFTLTISRLEPEDFAVYYCQQGSSIPFTFGQGTKLEIKRTVAAPSVFIFPPSDEQLKSGTASVVCLLNNFYPREAKVQWKVDNALQSGNSQESVTEQDSKDSTYSLSSTLTLSKADYEKHKVYACEVTHQGLSSPVTKSFNRGEC
heavy: QVQLVQSGAEVKKPGASVKVSCKASGYTFTNYWMHWVRQAPGQGLEWMGRIDLNSGGTNYNYAQKFQGRVTMTRDTSISTAYMELSRLRSDDTAVYYCARYYGSSWFAYWGQGTLVTVSSASTKGPSVFPLAPSSKSTSGGTAALGCLVKDYFPEPVTVSWNSGALTSGVHTFPAVLQSSGLYSLSSVVTVPSSSLGTQTYICNVNHKPSNTKVDKKVEPKSCDKTHTCPPCPAPPVAGPSVFLFPPKPKDTLMISRTPEVTCVVVDVSHEDPEVKFNWYVDGVEVHNAKTKPREEQYNSTYRVVSVLTVLHQDWLNGKEYKCKVSNKGLPSSIEKTISKAKGQPREPQVYTLPPSRDELTKNQVSLTCLVKGFYPSDIAVEWESNGQPENNYKTTPPVLDSDGSFFLYSKLTVDKSRWQQGNVFSCSVMHEALHNHYTQKSLSLSPGK
notes: Insulin immunoglobulin fusion protein: Ins1-L3-Ab4L light chain fusion paired with the full humanized heavy chain Ab4H; also called Ins1-L3-Ab4 IgG; Ins1-L3-Ab4L and Ab4H
As for B3, the binding result (in assay [3]; in the assay with cynomolgus monkey ASGPR [4]; in the assay with rat ASGPR [5]) was “binds” throughout.

B4: Ins1-L3-Ab5 Fab (Fab)
light: FVNQHLCGSDLVEALYLVCGERGFFYTDPTGGGPRRGIVEQCCHSICSLYQLENYCNGGGEAAAKEAAAKEAAAKAGGEIVLTQSPGTLSLSPGERATLSCSASSTISSNYLHWYQQKPGQAPRLLIYRTSDLASGIPDRFSGSGSGTDFTLTISRLEPEDFAVYYCQQGSSIPFTFGQGTKLEIKRTVAAPSVFIFPPSDEQLKSGTASVVCLLNNFYPREAKVQWKVDNALQSGNSQESVTEQDSKDSTYSLSSTLTLSKADYEKHKVYACEVTHQGLSSPVTKSFNRGEC
heavy: QVQLVQSGAEVKKPGASVKVSCKASGYTFTNYWMHWVRQAPGQGLEWMGWIDLNSGGTNYNYAQKFQGRVTMTRDTSISTAYMELSRLRSDDTAVYYCARYYGSSWFAYWGQGTLVTVSSASTKGPSVFPLAPSSKSTSGGTAALGCLVKDYFPEPVTVSWNSGALTSGVHTFPAVLQSSGLYSLSSVVTVPSSSLGTQTYICNVNHKPSNTKVDKKVEPKSCDKTHT
notes: As Ins1-L3-Ab4 Fab but with the Ab5H Fab heavy chain (Ab4H mutated at position 50); also called Ins1-L3-Ab5L (Fab)
Turning to B4, the binding result (in assay [6]; with cynomolgus monkey ASGPR [7]; with rat ASGPR [8]) was “binds” in each case.

B5: Ins1-L1-Ab1H IgG (antibody)
heavy: FVNQHLCGSDLVEALYLVCGERGFFYTDPTGGGPRRGIVEQCCHSICSLYQLENYCNGGGGSQVQLQQPGAELVKPGASVKLSCKASGYTFTNYWMHWVKQRPGRGLEWIGRIDLNSGGTNYNYNEKFKTKATLTVDKPSSTAYMQLSSLTSEDSAVYYCANYYGSSWFAYWGQGTTLTVSSAKTTAPSVYPLAPVCGDTTGSSVTLGCLVKGYFPEPVTLTWNSGSLSSGVHTFPAVLQSDLYTLSSSVTVTSSTWPSQSITCNVAHPASSTKVDKKIEPRGPTIKPCPPCKCPAPNLLGGPSVFIFPPKIKDVLMISLSPIVTCVVVDVSEDDPDVQISWFVNNVEVHTAQTQTHREDYNSTLRVVSALPIQHQDWMSGKEFKCKVNNKDLPAPIERTISKPKGSVRAPQVYVLPPPEEEMTKKQVTLTCMVTDFMPEDIYVEWTNNGKTELNYKNTEPVLDSDGSYFMYSKLRVEKKNWVERNSYSCSVVHEGLHNHHTTKSFSRTPGK
light: ETVLTQSPTTMATSPGEKITITCSASSTISSNYLHWYQQKPGFSPKLLIYRTSDLASGVPTRFSGSGSGTSYSLTIGTMEAEDVATYYCQQGSSIPFTFGSGTKLEINRADTAPTVSIFPPSSEQLTSGGASVVCFLNNFYPKDINVKWKIDGSERQNGVLNSWTDQDSKDSTYSMSSTLTLTKDEYERHNSYTCEATHKTSTSPIVKSFNRNEC
notes: also called Ins-L1-Ab1H IgG
For B5, the binding result (in assay [1]; with rat ASGPR [2]) was “binds” in each case.
